The record followed here is patent US6380162B1, “Ice inhibiting peptides” (Applied Research Systems ARS Holding N.V., priority 1999, dated 2002).

One data set concerns the target T1, ICE (Homo sapiens, UniProt P29466).
T1 sequence (P29466 120-404): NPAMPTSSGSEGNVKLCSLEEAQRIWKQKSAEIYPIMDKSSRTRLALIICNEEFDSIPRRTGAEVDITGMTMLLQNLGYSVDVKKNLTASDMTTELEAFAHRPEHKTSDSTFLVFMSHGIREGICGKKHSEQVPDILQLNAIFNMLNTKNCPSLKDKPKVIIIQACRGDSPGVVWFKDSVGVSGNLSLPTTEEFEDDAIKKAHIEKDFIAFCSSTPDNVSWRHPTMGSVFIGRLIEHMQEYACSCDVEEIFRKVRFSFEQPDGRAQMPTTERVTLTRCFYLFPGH
Description: Inhibition of ICE cleavage of pIL-1β, SDS-PAGE and Western blotting. Type of data set: biochemical. Details: expressed in transfected cells; host or cells: COS-7 cells transfected with pSG5-ICE cDNA, or alternatively lysate of freshly isolated human monocytes. The note with it: pIL-1β 5 ng incubated with ICE; peptides 100, 300 or 1,000 μM; Western blotting. As for the experimental part: cDNA coding for human ICE has been amplified by PCR. The sequence was confirmed and the cDNA was subcloned into pSG5 expression vector. COS cells were transfected with empty vector (mock) or vector containing ICE cDNA and after 48 hours, cells were analysed for the expression of ICE specific mRNA.
A monocyte lysate, prepared as previously described (11), was also able to convert pIL-1β into a mature form (FIG. 2). Therefore, recombinant ICE or freshly isolated human monocytes were used as a source of ICE enzymatic activity for further experiments.
A source of ICE activity was prepared and its ability to cleave pIL-1β was tested by incubating the reaction at 37° C. for 1 hour. The mixture was then run on SDS-PAGE and the presence of pIL1-β or the mature form was evidenced by Western Blotting.

Data set [1] deals with Human recombinant IL-1β precursor, P01584.
Sequence of Human recombinant IL-1β precursor, P01584 (P01584 whole entry, looked up): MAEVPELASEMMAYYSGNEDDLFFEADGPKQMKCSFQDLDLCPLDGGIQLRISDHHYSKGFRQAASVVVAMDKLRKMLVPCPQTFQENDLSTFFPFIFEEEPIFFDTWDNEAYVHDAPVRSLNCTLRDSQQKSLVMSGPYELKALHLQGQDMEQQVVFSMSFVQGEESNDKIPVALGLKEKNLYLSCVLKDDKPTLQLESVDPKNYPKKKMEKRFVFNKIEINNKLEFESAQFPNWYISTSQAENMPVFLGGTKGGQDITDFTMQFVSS

Turning to “peptide S: SEQ ID NO:5, identical to peptide C except for two Ala substituting the two Asp residues (MALAALYEEGGGGGGEGEDNAASK)”, the “inhibition of ICE activity (FIG. 6)” value in the data set with ICE is given as “inhibition of ICE activity”. For the molecule “peptide C: SEQ ID NO:4, designed on the basis of icIL-1raII sequence (MALADLYEEGGGGGGEGEDNADSK)”, in the data set with ICE, the “inhibition of ICE activity (FIG. 6)” value is “inhibition of ICE activity”.

B1: ICE (Interleukin-1β-Converting Enzyme), human (protein)
chain: MADKVLKEKRKLFIRSMGEGTINGLLDELLQTRVLNKEEMEKVKRENATVMDKTRALIDSVIPKGAQACQICITYICEEDSYLAGTLGLSADQTSGNYLNMQDSQGVLSSFPAPQAVQDNPAMPTSSGSEGNVKLCSLEEAQRIWKQKSAEIYPIMDKSSRTRLALIICNEEFDSIPRRTGAEVDITGMTMLLQNLGYSVDVKKNLTASDMTTELEAFAHRPEHKTSDSTFLVFMSHGIREGICGKKHSEQVPDILQLNAIFNMLNTKNCPSLKDKPKVIIIQACRGDSPGVVWFKDSVGVSGNLSLPTTEEFEDDAIKKAHIEKDFIAFCSSTPDNVSWRHPTMGSVFIGRLIEHMQEYACSCDVEEIFRKVRFSFEQPDGRAQMPTTERVTLTRCFYLFPGH
Regarding B1, the “conversion of pIL-1β into the mature form (Western blotting after 60 minutes at 37° C.)” value in data set [1] was “A monocyte lysate, prepared as previously described (11), was also able to convert pIL-1β into a mature form”.
